Measured values from paper PMC9959367, “Identification and Characterization of p300-Mediated Lysine Residues in Cardiac SERCA2a” (International Journal of Molecular Sciences, 2023).

Molecular target: T1, phospholamban (PLN) (UniProt P26678 1-52)
T1 construct: phospholamban, overexpressed
T1 sequence (looked up): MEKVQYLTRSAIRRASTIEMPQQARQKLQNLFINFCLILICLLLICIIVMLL
Experiment: co-IP; IP experiments in overexpression systems, told in the discussion only, data not shown; which partner was precipitated is not told
Settings: partners not purified

fold change of affinity against wild-type SERCA2a: ~2.5 fold
B1: acetylation-mimic mutant of K328 SERCA2a (K328Q) (natural protein, UniProt P16615-2 1-997, looked up)
chain: MENAHTKTVEEVLGHFGVNESTGLSLEQVKKLKERWGSNELPAEEGKTLLELVIEQFEDLLVRILLLAACISFVLAWFEEGEETITAFVEPFVILLILVANAIVGVWQERNAENAIEALKEYEPEMGKVYRQDRKSVQRIKAKDIVPGDIVEIAVGDKVPADIRLTSIKSTTLRVDQSILTGESVSVIKHTDPVPDPRAVNQDKKNMLFSGTNIAAGKAMGVVVATGVNTEIGKIRDEMVATEQERTPLQQKLDEFGEQLSKVISLICIAVWIINIGHFNDPVHGGSWIRGAIYYFKIAVALAVAAIPEGLPAVITTCLALGTRRMAQKNAIVRSLPSVETLGCTSVICSDKTGTLTTNQMSVCRMFILDRVEGDTCSLNEFTITGSTYAPIGEVHKDDKPVNCHQYDGLVELATICALCNDSALDYNEAKGVYEKVGEATETALTCLVEKMNVFDTELKGLSKIERANACNSVIKQLMKKEFTLEFSRDRKSMSVYCTPNKPSRTSMSKMFVKGAPEGVIDRCTHIRVGSTKVPMTSGVKQKIMSVIREWGSGSDTLRCLALATHDNPLRREEMHLEDSANFIKYETNLTFVGCVGMLDPPRIEVASSVKLCRQAGIRVIMITGDNKGTAVAICRRIGIFGQDEDVTSKAFTGREFDELNPSAQRDACLNARCFARVEPSHKSKIVEFLQSFDEITAMTGDGVNDAPALKKAEIGIAMGSGTAVAKTASEMVLADDNFSTIVAAVEEGRAIYNNMKQFIRYLISSNVGEVVCIFLTAALGFPEALIPVQLLWVNLVTDGLPATALGFNPPDLDIMNKPPRNPKEPLISGWLFFRYLAIGCYVGAATVGAAAWWFIAADGGPRVSFYQLSHFLQCKEDNPDFEGVDCAIFESPYPMTMALSVLVTIEMCNALNSLSENQSLLRMPPWENIWLVGSICLSMSLHFLILYVEPLPLIFQITPLNVTQWLMVLKISLPVILMDETLKFVARNYLEPAILE
notes: SERCA2a with lysine 328 exchanged for glutamine to mimic acetylation; The mutants were expressed from plasmids in HEK293 cells for the ATPase assays; also called K328Q SERCA2a
